What all share (experiment): purified protein
Conditions in all cases: 37 °C

Substrate in data set [1]: NC(=O)CC[C@H](N)C(=O)O
Substrate in data set [2]: NC(=O)C[C@H](N)C(=O)O
Type of data set: biochemical, Wolinella succinogenes.

Substrate in data set [3]: NC(=O)CC[C@H](N)C(=O)O
Type of data set: biochemical, Wolinella succinogenes.

Changes are numbered by the printed parent chain. Names may count otherwise.

The term Km denotes the substrate concentration at which the rate is half of its maximum. The kcat is the maximal rate divided by the concentration of active sites. One may read the kcat/Km as the turnover number divided by the Michaelis constant.

B1: WoA-S121 (Wolinella succinogenes L-asparaginase) (Wolinella succinogenes DSM 1740) (protein)
chain: MAKPQVTILATGGTIAGSGESSVKSSYSAGAVTVDKLLAAVPAINDLATIKGEQISSIGSQEMTGKVWLKLAKRVNELLAQKETEAVIITHGTDTMEETAFFLNLTVKSQKPVVLVGAMRSGSSMSADGPMNLYNAVNVAINKASTNKGVVIVMNDEIHAAREATKLNTTAVNAFASPNTGKIGTVYYGKVEYFTQSVRPHTLASEFDISKIEELPRVDILYAHPDDTDVLVNAALQAGAKGIIHAGMGNGNPFPLTQNALEKAAKSGVVVARSSRVGSGSTTQEAEVDDKKLGFVATESLNPQKARVLLMLALTKTSDREAIQKIFSTY
notes: recombinant, pET28 vector, E. coli BL21-AI; 330 residues per protomer; tetramer (dimer of dimers)
On to B1, for which, in “purified protein [1]”, the Km stood at 380 ± 50 µM, the kcat is 1.58 s⁻¹ and the kcat/Km turned out to be 4200 M⁻¹ s⁻¹. Further, in the data set “purified protein [2]”, the Km turned out to be 21.7 ± 1.2 µM, the catalytic constant (kcat) was 97.8 ± 1 s⁻¹ and the specificity constant (kcat/Km) amounted to 4.5e+06 ± 250000 M⁻¹ s⁻¹.

B2: WoA-S121 (Wolinella succinogenes L-asparaginase) (Wolinella succinogenes DSM 1740; S121P) (protein)
chain: B1 chain with S121P
notes: as for B1
Regarding B2, in the data set “purified protein [3]”, the Km came to 320 ± 20 µM, the kcat was 11.33 ± 0.11 s⁻¹ and the catalytic efficiency (kcat/Km) came to 35300 ± 2240 M⁻¹ s⁻¹. Also, in “purified protein [2]”, the Michaelis constant (Km) stood at 23.6 ± 1.1 µM, the kcat is 86.7 ± 0.8 s⁻¹ and the kcat/Km was 3.7e+06 ± 170000 M⁻¹ s⁻¹.

Source of the values: paper PMC5282591, “The differential ability of asparagine and glutamine in promoting the closed/active enzyme conformation rationalizes the Wolinella succinogenes L-asparaginase substrate specificity” (Scientific Reports, 2017).
